Series [1] concerns the target DnaT N-terminal core domain (E. coli). Description: fluorescence polarisation. For orientation: In fluorescence polarisation assays a small probe gives low polarisation when free and higher when bound to something large.
Series [2] has the same target. Description: fluorescence polarisation. This is another data set of the same source.
Series [3] concerns the molecule itself. The experiment in a line: fluorescence polarisation.
The series “AUC” deals with the molecule itself. Description: AUC.

Like-named read-outs stand apart in the source and are kept apart here.

As to “DnaT N-terminal core domain (domain or fragment)”, the figures for the dH in series [1] and in series [2] were 2.2 kcal/mol and -4.6 kcal/mol, respectively.

B1: Escherichia coli DnaT protein (natural protein, E. coli, UniProt P0A8J2 1-179, looked up)
chain: MSSRVLTPDVVGIDALVHDHQTVLAKAEGGVVAVFANNAPAFYAVTPARLAELLALEEKLARPGSDVALDDQLYQEPQAAPVAVPMGKFAMYPDWQPDADFIRLAALWGVALREPVTTEELASFIAYWQAEGKVFHHVQWQQKLARSLQIGRASNGGLPKRDVNTVSEPDSQIPPGFRG
By stoichiometry N is commonly meant a count of units in the complex or per binding partner. In turn, B1 came in with a dH in series [3] of -15 ± 2 kcal/mol. Moreover, in the series “AUC”, the “stoichiometry N” value turned out to be 3.
